± gives the standard deviation.
Test: protein stability index of a GFP-peptide fusion (GPS, HEK-293T) (PSI 1-6); higher = more stable
Settings: c terminus: a fixed tail appended
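Note: 24-mer peptide tiles fused after GFP, lentivirally expressed, FACS-sorted into six equal bins by GFP/DsRed ratio, decoded by Illumina sequencing, PSI is the read-weighted mean bin number.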

Sequence | protein stability index (treatment: DMSO) | protein stability index (treatment: MLN4924 1 uM, 8 h)
QGLLHEAGSTDDRIVVPQRGRSTR [SPNS1] | 5.13 ± 0.32 | 5.14 ± 0.15
KLLDHDNVKYLKKILDELEKVLDQ [GDAP1] | 2.42 ± 0.56 | 2.32 ± 0.47
REEEDRALPENEFKKQIWLLFEYP [KCNA4] | 2.7 ± 0.19 | 2.94 ± 0.46
KHERTHEIIPINVNNNYEHRHTSH [SPRY1] | 3.68 ± 0.37 | 3.91 ± 0.34
QGSRSGVSGGSRSLNMSRRDSEST [PHTF1] | 4.86 ± 0.4 | 4.9 ± 0.22
TFEVPEENTAETITRVLYEVFIEW [ZBED1] | 2.07 ± 0.4 | 2 ± 0.47
DWLRRPLGEDNQPETQLFWDKEPW [TLE6] | 3.35 ± 0.34 | 3.22 ± 0.43
GYNDYTINVWDVLKGSRVSILFGH [GNB5] | 2.28 ± 0.39 | 2.3 ± 0.37
LKCEMNQMSGEPLDKLNFEAINFC [ACSBG2] | 2.92 ± 0.41 | 3.16 ± 0.31
TADISSHFQEAIDFIDCVREKGGK [DUSP5] | 4.4 ± 0.26 | 4.7 ± 0.22
KYDVKKVEEVVYDLSIRGFNKETA [TSN] | 3.57 ± 0.31 | 3.64 ± 0.23
ARAEQEEEFISNTLFKKIQALQKE [CCDC6] | 3.48 ± 0.41 | 3.77 ± 0.34
TSSQKALMLELKSLQEEPVEGFRI [UBE2R2] | 3.11 ± 0.31 | 3.3 ± 0.24
VLDFDFEKLCSISLSHINAYACLV [USP39] | 2.83 ± 0.59 | 2.56 ± 0.53
VQLSDEMFVFQDGRWVNENCRLQS [CBY2] | 3.06 ± 0.26 | 3.03 ± 0.34
LRNKLRELCVKLMFLHPVDYGRKA [SMG5] | 3.21 ± 0.36 | 3.03 ± 0.51
AAFGHVQRAEMLPKTSGTRATSLG [CPOX] | 3.82 ± 0.18 | 3.91 ± 0.077
DERRDAEERASLAGNRNSMVIHIP [KCNK9] | 4.24 ± 0.08 | 4.51 ± 0.086
GRDRNLAPDEKRSNVRWDHESVCK [LUC7L3] | 4.61 ± 0.41 | 4.55 ± 0.2
VHEFCAGRECQPRWETSSWSECSR [ADAMTSL2] | 2.42 ± 0.28 | 2.85 ± 0.53

Sequence | protein stability index (treatment: DMSO) | protein stability index (treatment: MLN4924 1 uM, 8 h)
NPPRAEFNYSVGFKDLNESLNALE [APBB1IP] | 3.48 ± 0.26 | 3.65 ± 0.21
LTLYNPTGTALRFRVLCTAPAKYT [MOSPD3] | 2.79 ± 0.65 | 2.69 ± 0.48
PSGAGKTVVGVPSGKVSSSSSSLG [ZC2HC1A] | 4.47 ± 0.35 | 4.65 ± 0.14
KYELMRPSNKAPLLVLCEDHRGRM [EHMT1] | 2.57 ± 0.28 | 2.78 ± 0.26
SPEARDARSPSGPSGSLENGTKAD [TRIM29] | 5.36 ± 0.44 | 5.61 ± 0.18
WTLRRTKELRKDYQGPGTRRLQEV [DYRK1B] | 3.11 ± 0.32 | 3.1 ± 0.32
MDHIRIFQEQVEKLKALHVDSAEY [NR2F2] | 3.07 ± 0.44 | 3.2 ± 0.36
REYLSEEVQAVHKNTTYDLIANIV [USP39] | 2.23 ± 0.23 | 2.32 ± 0.11
TKFGLFTPGSRIESILMSLPLTAR [CPOX] | 2.21 ± 0.3 | 2.2 ± 0.28
GGAGKGRTPSAFPQTPAAPPATLG [EHMT1] | 4.6 ± 0.13 | 4.79 ± 0.059
AGSPIRHENAVQGSAVEVQTYQPP [ISL2] | 4.91 ± 0.14 | 5.04 ± 0.19
LPFVLAAAVSRKKKRRMGTYSLVP [EHMT1] | 2.34 ± 0.26 | 2.27 ± 0.24
SFSEETEKKFEHFSGLLNNQLSPQ [LOXL2] | 4.09 ± 0.47 | 4.56 ± 0.18
GAYGNLKRLYDKAAKMYHQLKKCE [SMG5] | 2.45 ± 1 | 2.325 ± 0.014
NALTLFNLAQDPQCKEWQVLMCGF [TMEM120A] | 2.26 ± 0.38 | 2.06 ± 0.16
WEISWPLEQRGTHAVVGVATALAP [SPSB2] | 2.44 ± 0.26 | 2.73 ± 0.36
HFERRDNMNDNFLEGEEENELTLN [CHGB] | 5.53 ± 0.06 | 5.61 ± 0.21
VEVDTAPTVDLNQVLNETRSQYEA [KRT34] | 5.2 ± 0.17 | 5 ± 0.32
AICGDRATGKHYGASSCDGCKGFF [HNF4A] | 2.8 ± 0.24 | 2.98 ± 0.31
